Results: the supplement of paper PMC7877785
± gives the uncertainty stated by the source.

Assay: self-splicing fitness, log relative to wild type (ln ratio); higher = more splicing; Tetrahymena group I intron in knt gene, E. coli kanamycin selection, DiMSum; sequences stand for … in CUCUCU…GGAGGGAAAAGUUAUCAGGCAUGCACCUGGUAGCUAGUCUUUAAACCAAUAGAUUGCAUCGGUUUAAAAGGCAAGACCGUCAAAUUGCGGGAAAGGGGUCAACAGCCGUUCAGUACCAAGUCUCAGGGGAAACUUUGAGAUGGCCUUGCAAAGGGUAUGGUAAUAAGCUGACGGACAUGGUCCUAACCACGCAGCCAAGUCCUAAGUCAACAGAUCUUCUGUUGAUAUGGAUGCAGUUCACAGACUAAAUGUCGGUCGGGGAAGAUGUAUUCUUCUCAUAAGAUAUAGUCGGACCUCUCCUUAAUGGGAGCUAGCGGAUGAAGUGAUGCAACACUGGAGCCGCUGGGAACUAAUUUGUAUGCGAAAGUAUAUUGAUUAGUUUUGGAGUACUCGUGGUCG
How it was run: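 Six replicate transformations of E. coli BL21(DE3) with a pET-22b(+) library were grown overnight at 37°C or 30°C. The library randomised all eight P1ex-region intron nucleotides, the intron lying in the knt kanamycin-resistance gene, and plates were LB agar with or without 25 μg/mL kanamycin plus 100 μg/mL carbenicillin, 50 μM IPTG and 0.2% rhamnose. Pooled colonies were amplicon-sequenced on an Illumina HiSeq 2500, and fitness is the DiMSum error-weighted combination of wild-type-normalised replicate fold changes, kanamycin versus none.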

Sequence | self-splicing fitness (ln) (30 °C) | self-splicing fitness (ln) (37 °C)
GCCUAGCAAUAUUACGUAAU | -0.648 ± 0.071 | 0.224 ± 0.087
GCCUAGCAAUAUUACGUAUA | -3.04 ± 0.25 | -1.63 ± 0.15
GCCUAGCAAUAUUACGUCAG | -2.36 ± 0.26 | -0.81 ± 0.34
GCCUAGCAAUAUUACGUGAU | -0.0579 ± 0.072 | 0.159 ± 0.079
GCCUAGCAAUAUUACGUGCA | -2.35 ± 0.12 | -0.937 ± 0.1
GCCUAGCAAUAUUACGUGGA | -0.477 ± 0.068 | 0.358 ± 0.076
GCCUAGCAAUAUUACGUUAG | -4.33 ± 0.18 | -2.4 ± 0.16
GCCUAGCAAUAUUACGUUUG | -2.89 ± 0.21 | -0.761 ± 0.13
GCCUAGCAAUAUUACGUUUU | -1.7 ± 0.097 | -0.614 ± 0.12
GCGAAGCAAUAUUACGAAGC | -2.71 ± 0.39 | -2.49 ± 0.36
GCGAAGCAAUAUUACGAAUC | -2.47 ± 0.11 | -1.11 ± 0.12
GCGAAGCAAUAUUACGAGGC | – | -1.65 ± 0.45
GCGAAGCAAUAUUACGAUGA | -1.1 ± 0.11 | 0.105 ± 0.098
GCGAAGCAAUAUUACGCAGC | -3.31 ± 0.25 | -2.06 ± 0.34
GCGAAGCAAUAUUACGCAUA | -1.92 ± 0.2 | -1.76 ± 0.16
GCGAAGCAAUAUUACGCGGA | – | -1.26 ± 0.36
GCGAAGCAAUAUUACGCUCU | -1.7 ± 0.24 | -1.49 ± 0.38
GCGAAGCAAUAUUACGCUGU | -1.5 ± 0.39 | –
GCGAAGCAAUAUUACGGCGA | -0.0437 ± 0.14 | 0.0298 ± 0.15
GCGAAGCAAUAUUACGGCGU | -2.68 ± 0.37 | -0.799 ± 0.46
GCGAAGCAAUAUUACGGCUA | 0.15 ± 0.15 | -0.618 ± 0.12

Sequence | self-splicing fitness (ln) (30 °C) | self-splicing fitness (ln) (37 °C)
GCGAAGCAAUAUUACGGGAU | -3.58 ± 0.3 | -2.07 ± 0.26
GCGAAGCAAUAUUACGGGCC | – | -1.37 ± 0.46
GCGAAGCAAUAUUACGGGGA | -3.69 ± 0.23 | -3.12 ± 0.33
GCGAAGCAAUAUUACGGUUC | -3.23 ± 0.2 | -1.24 ± 0.18
GCGAAGCAAUAUUACGGUUU | -3.22 ± 0.13 | -1.62 ± 0.13
GCGAAGCAAUAUUACGUACC | -1.02 ± 0.17 | 0.269 ± 0.19
GCGAAGCAAUAUUACGUAGA | -3.57 ± 0.44 | -1.75 ± 0.37
GCGAAGCAAUAUUACGUUAA | -1.65 ± 0.18 | -1.88 ± 0.23
GCGCAGCAAUAUUACGAACA | -1.64 ± 0.12 | -1.32 ± 0.097
GCGCAGCAAUAUUACGCACC | -3.7 ± 0.2 | -2.41 ± 0.25
GCGCAGCAAUAUUACGCCCU | – | 0.00379 ± 0.44
GCGCAGCAAUAUUACGCCGA | -0.753 ± 0.49 | -1.27 ± 0.28
GCGCAGCAAUAUUACGCGAC | -1.77 ± 0.12 | -1.79 ± 0.18
GCGCAGCAAUAUUACGCGGC | – | -3.69 ± 0.37
GCGCAGCAAUAUUACGCGUA | -1.14 ± 0.082 | -1.39 ± 0.083
GCGCAGCAAUAUUACGCUGG | -2.1 ± 0.1 | -2.13 ± 0.16
GCGCAGCAAUAUUACGCUUU | -1.39 ± 0.068 | -0.38 ± 0.083
GCGCAGCAAUAUUACGGAUC | -0.0635 ± 0.068 | 0.419 ± 0.083
GCGCAGCAAUAUUACGGCGA | -0.0713 ± 0.075 | -0.173 ± 0.089
GCGCAGCAAUAUUACGGCUC | -0.438 ± 0.12 | 0.47 ± 0.15
GCGCAGCAAUAUUACGGGGA | -2.23 ± 0.14 | -0.687 ± 0.11

Sequence | self-splicing fitness (ln) (30 °C) | self-splicing fitness (ln) (37 °C)
GCGCAGCAAUAUUACGGUGG | -1.74 ± 0.059 | -0.842 ± 0.08
GCGCAGCAAUAUUACGUAGC | -1.95 ± 0.11 | -0.709 ± 0.12
GCGCAGCAAUAUUACGUAUG | -3.67 ± 0.23 | -1.8 ± 0.21
GCGCAGCAAUAUUACGUCAA | -2.46 ± 0.14 | -0.0917 ± 0.1
GCGCAGCAAUAUUACGUGGC | -1.81 ± 0.29 | -2.36 ± 0.29
GCGCAGCAAUAUUACGUUGG | -1.81 ± 0.06 | -1.76 ± 0.097
GCGCAGCAAUAUUACGUUUC | -1.35 ± 0.057 | -0.727 ± 0.074
GCGGAGCAAUAUUACGACGA | -0.227 ± 0.16 | -0.189 ± 0.14
GCGGAGCAAUAUUACGCAGC | -1.9 ± 0.35 | -2.35 ± 0.34
GCGGAGCAAUAUUACGCCCU | -2.95 ± 0.45 | –
GCGGAGCAAUAUUACGCGCG | -2.77 ± 0.34 | -2.83 ± 0.27
GCGGAGCAAUAUUACGCGUU | -2.26 ± 0.24 | -1.23 ± 0.22
GCGGAGCAAUAUUACGGAAA | – | -1.54 ± 0.46
GCGGAGCAAUAUUACGGUGA | -2.38 ± 0.46 | –
GCGGAGCAAUAUUACGUACG | -2.97 ± 0.28 | -2.71 ± 0.44
GCGGAGCAAUAUUACGUACU | -1.85 ± 0.21 | -1.46 ± 0.22
GCGGAGCAAUAUUACGUAUA | – | -2.2 ± 0.44
GCGGAGCAAUAUUACGUCGA | -2.59 ± 0.32 | -1.83 ± 0.24
GCGGAGCAAUAUUACGUGUG | -3.19 ± 0.17 | -2.77 ± 0.29
GCGGAGCAAUAUUACGUUAU | -3.7 ± 0.19 | -2.81 ± 0.15
GCGGAGCAAUAUUACGUUGC | -4.4 ± 0.42 | -2.78 ± 0.34
